Reference: paper doi:10.1101/2020.12.23.423990
Several values for one entry are separate records, joined by “and”; a condition that tells them apart may be missing. Identical values can stand only once.

Target: nucleocapsid variant NC-1 (circularly permuted Aquifex aeolicus lumazine synthase with the arginine-rich peptide λN+ appended) (Aquifex aeolicus)
Experiment: cryo-EM structure

With “nucleocapsid variant NC-1 (circularly permuted Aquifex aeolicus lumazine synthase with the arginine-rich peptide λN+ appended)” the stoichiometry N was 180 and 120.
